Assay results published in patent US20230250167A1 (published 2023).

Target: T1, human ILT7 expressed on transfected cells (human, UniProt P59901 24-499)
T1 construct: whole, on cells; also called LILRA4; LIRA4
Assay: FMAT cell binding, CHO cells expressing human ILT7
From the text: This homogeneous assay assessed the binding of crude scFv supernatant samples or purified IgG to Chinese Hamster Ovary (CHO) cells expressing either human or cynomolgus ILT7 in a 384-well (Costar 3655) format. ScFv or Ab binding to cells was detected using a mouse anti-His/goat anti-mouse Alexafluor®-647 labelled antibody (Molecular Probes A21236) mix, or goat anti-human Alexafluor®-647 labelled antibody (Molecular Probes A21445) respectively. Plates were read on the Applied Biosystems Cellular Detection system 8200 reader. The Helium neon excitation laser was focused within 100 μm depth of the bottom of the well, scanning an area 1 mm². The cells settled at the bottom of the well, and upon laser excitation at 633 nm, those beads with fluorophore bound (where the local concentration of fluorophore is relatively high compared to unbound fluorophore) emitted a signal at 650-685 nm that was measured using photomultiplier tube-1 (PMT1). […] The presence of scFv or IgG samples binding to the cells at the bottom of the well caused an increase in Alexafluor-labeled detection antibody within the excitation depth. This was measured as an increase in fluorescence.
Species cross-reactivity of anti-ILT7 antibodies was determined using FMAT binding assay. The detailed assay method is provided in the Materials and Methods section. […]

T1 sequence (P59901 24-499): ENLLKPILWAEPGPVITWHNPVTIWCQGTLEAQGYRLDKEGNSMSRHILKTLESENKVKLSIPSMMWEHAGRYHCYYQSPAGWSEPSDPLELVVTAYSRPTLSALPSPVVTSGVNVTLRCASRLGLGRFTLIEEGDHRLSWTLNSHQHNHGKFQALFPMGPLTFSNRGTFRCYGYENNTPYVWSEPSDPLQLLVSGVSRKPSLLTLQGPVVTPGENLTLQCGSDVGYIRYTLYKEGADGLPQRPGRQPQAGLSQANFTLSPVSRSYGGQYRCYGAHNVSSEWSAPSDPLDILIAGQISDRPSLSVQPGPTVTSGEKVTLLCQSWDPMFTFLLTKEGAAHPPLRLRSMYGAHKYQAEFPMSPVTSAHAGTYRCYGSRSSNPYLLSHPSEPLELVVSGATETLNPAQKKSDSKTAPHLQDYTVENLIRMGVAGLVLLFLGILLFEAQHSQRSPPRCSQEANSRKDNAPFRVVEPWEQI

Row | Binder | binding result
1 | ILT70052 (antibody, V domains shown) VH: EVQLVESGGGLVKPGGSLRLSCEASGFTFTDYYMNWIRQAPGKGLEWISYISPGGTTVYYADSVKGRFTISRDNAKNSLYLQMNSLRVEDTAVYYCARDISGYGDWFDPWGKGTLVTVSS VL: QSVVTQPPSASGTPGQRVTISCSGSSSNIGSNTVNWYQLLPATAPRILIYNNNQRPSGVPDRFAGSKSGTSASLAISGLQSEDEADYYCGAWDDSLNSPVFGGGTKLTVL | binds
2 | ILT70100 (antibody, V domains shown) VH: not shown VL: DIQLTQSPSSLSASVGERVTITCQASQDIRSYLNWYQQKPGKAPKLLIYDVSNLETGVPSRFSGSGSGTEYTFSISSLQPEDFATYYCQQYDKAPLTFGGGTKVEIK | binds
